In the Human Domainome abundance scans (Beltran et al. 2025):
± gives the uncertainty stated by the source.

B1: 3'-5' exoribonuclease 1, residues 65 to 114; numbered along this chain, Q8IV48 (parent)
chain: VYKEIAITNGCINRMSKEELRAKLSEFKLETRGVKDVLKKRLKNYYKKQK

Variants of: B1
Assay: abundance fitness (aPCA) (normalised: wild type 0, dead -1); higher = more abundant; growth selection in yeast, the domain comes from the species named
Conditions: Homo sapiens

Variant	abundance fitness
VYKEIAITNGCINRMSKEEMRAKLSEFKLETRGVKDVLKKRLKNYYKKQK [L20M]	-0.282 ± 0.047
VYKEIAITNGCINRMSKEEDRAKLSEFKLETRGVKDVLKKRLKNYYKKQK [L20D]	-1 ± 0.089
VYKEIAITNGCINRMSKEEERAKLSEFKLETRGVKDVLKKRLKNYYKKQK [L20E]	-0.78 ± 0.056
VYKEIAITNGCINRMSKEECRAKLSEFKLETRGVKDVLKKRLKNYYKKQK [L20C]	-0.879 ± 0.064
VYKEIAITNGCINRMSKEESRAKLSEFKLETRGVKDVLKKRLKNYYKKQK [L20S]	-0.479 ± 0.044
VYKEIAITNGCINRMSKEERRAKLSEFKLETRGVKDVLKKRLKNYYKKQK [L20R]	-0.997 ± 0.052
VYKEIAITNGCINRMSKEETRAKLSEFKLETRGVKDVLKKRLKNYYKKQK [L20T]	-0.913 ± 0.06
VYKEIAITNGCINRMSKEEKRAKLSEFKLETRGVKDVLKKRLKNYYKKQK [L20K]	-0.956 ± 0.085
VYKEIAITNGCINRMSKEEPRAKLSEFKLETRGVKDVLKKRLKNYYKKQK [L20P]	-0.961 ± 0.068
VYKEIAITNGCINRMSKEEQRAKLSEFKLETRGVKDVLKKRLKNYYKKQK [L20Q]	-0.892 ± 0.081
VYKEIAITNGCINRMSKEEFRAKLSEFKLETRGVKDVLKKRLKNYYKKQK [L20F]	-0.512 ± 0.059
VYKEIAITNGCINRMSKEEGRAKLSEFKLETRGVKDVLKKRLKNYYKKQK [L20G]	-0.942 ± 0.043
VYKEIAITNGCINRMSKEEARAKLSEFKLETRGVKDVLKKRLKNYYKKQK [L20A]	-0.912 ± 0.05
VYKEIAITNGCINRMSKEEVRAKLSEFKLETRGVKDVLKKRLKNYYKKQK [L20V]	-0.568 ± 0.038
VYKEIAITNGCINRMSKEEWRAKLSEFKLETRGVKDVLKKRLKNYYKKQK [L20W]	-0.835 ± 0.044
VYKEIAITNGCINRMSKEELRAHLSEFKLETRGVKDVLKKRLKNYYKKQK [K23H]	-0.154 ± 0.062
VYKEIAITNGCINRMSKEELRACLSEFKLETRGVKDVLKKRLKNYYKKQK [K23C]	-0.158 ± 0.057
VYKEIAITNGCINRMSKEELRAELSEFKLETRGVKDVLKKRLKNYYKKQK [K23E]	-0.56 ± 0.048
VYKEIAITNGCINRMSKEELRAGLSEFKLETRGVKDVLKKRLKNYYKKQK [K23G]	-0.861 ± 0.043
VYKEIAITNGCINRMSKEELRVKLSEFKLETRGVKDVLKKRLKNYYKKQK [A22V]	-0.048 ± 0.038
VYKEIAITNGCINRMSKEELRGKLSEFKLETRGVKDVLKKRLKNYYKKQK [A22G]	-0.118 ± 0.034
VYKEIAITNGCINRMSKEELRFKLSEFKLETRGVKDVLKKRLKNYYKKQK [A22F]	-0.12 ± 0.049
VYKEIAITNGCINRMSKEELRTKLSEFKLETRGVKDVLKKRLKNYYKKQK [A22T]	-0.055 ± 0.052
VYKEIAITNGCINRMSKEELRIKLSEFKLETRGVKDVLKKRLKNYYKKQK [A22I]	-0.057 ± 0.069
VYKEIAITNGCINRMSKEELRQKLSEFKLETRGVKDVLKKRLKNYYKKQK [A22Q]	-0.044 ± 0.06
VYKEIAITNGCINRMSKEELRRKLSEFKLETRGVKDVLKKRLKNYYKKQK [A22R]	-0.031 ± 0.038

Variant	abundance fitness
VYKEIAITNGCINRMSKEELRHKLSEFKLETRGVKDVLKKRLKNYYKKQK [A22H]	-0.049 ± 0.063
VYKEIAITNGCINRMSKEELRMKLSEFKLETRGVKDVLKKRLKNYYKKQK [A22M]	-0.047 ± 0.051
VYKEIAITNGCINRMSKEELRSKLSEFKLETRGVKDVLKKRLKNYYKKQK [A22S]	-0.04 ± 0.039
VYKEIAITNGCINRMSKEELRCKLSEFKLETRGVKDVLKKRLKNYYKKQK [A22C]	-0.032 ± 0.044
VYKEIAITNGCINRMSKEELRPKLSEFKLETRGVKDVLKKRLKNYYKKQK [A22P]	-0.948 ± 0.079
VYKEIAITNGCINRMSKEELRNKLSEFKLETRGVKDVLKKRLKNYYKKQK [A22N]	-0.027 ± 0.061
VYKEIAITNGCINRMSKEELRWKLSEFKLETRGVKDVLKKRLKNYYKKQK [A22W]	-0.209 ± 0.046
VYKEIAITNGCINRMSKEELRKKLSEFKLETRGVKDVLKKRLKNYYKKQK [A22K]	0.057 ± 0.06
VYKEIAITNGCINRMSKEELRLKLSEFKLETRGVKDVLKKRLKNYYKKQK [A22L]	-0.052 ± 0.038
VYKEIAITNGCINRMSKEELRDKLSEFKLETRGVKDVLKKRLKNYYKKQK [A22D]	-0.122 ± 0.051
VYKEIAITNGCINRMSYEELRAKLSEFKLETRGVKDVLKKRLKNYYKKQK [K17Y]	-0.651 ± 0.087
VYKEIAITNGCINRMSTEELRAKLSEFKLETRGVKDVLKKRLKNYYKKQK [K17T]	-0.366 ± 0.056
VYKEIAITNGCINRMSFEELRAKLSEFKLETRGVKDVLKKRLKNYYKKQK [K17F]	-0.646 ± 0.058
VYKEIAITNGCINRMSLEELRAKLSEFKLETRGVKDVLKKRLKNYYKKQK [K17L]	-0.592 ± 0.058
VYKEIAITNGCINRMSQEELRAKLSEFKLETRGVKDVLKKRLKNYYKKQK [K17Q]	-0.664 ± 0.13
VYKEIAITNGCINRMSWEELRAKLSEFKLETRGVKDVLKKRLKNYYKKQK [K17W]	-0.871 ± 0.17
VYKEIAITNGCINRMSIEELRAKLSEFKLETRGVKDVLKKRLKNYYKKQK [K17I]	-0.329 ± 0.057
VYKEIAITNGCINRMSCEELRAKLSEFKLETRGVKDVLKKRLKNYYKKQK [K17C]	-0.113 ± 0.086
VYKEIAITNGCINRMSAEELRAKLSEFKLETRGVKDVLKKRLKNYYKKQK [K17A]	-0.209 ± 0.076
VYKEIAITNGCINRMSHEELRAKLSEFKLETRGVKDVLKKRLKNYYKKQK [K17H]	-0.591 ± 0.083
VYKEIAITNGCINRMSNEELRAKLSEFKLETRGVKDVLKKRLKNYYKKQK [K17N]	-0.378 ± 0.063
VYKEIAITNGCINRMSDEELRAKLSEFKLETRGVKDVLKKRLKNYYKKQK [K17D]	-0.759 ± 0.12
VYKEIAITNGCINRMSEEELRAKLSEFKLETRGVKDVLKKRLKNYYKKQK [K17E]	-0.518 ± 0.13
VYKEIAITNGCINRMSVEELRAKLSEFKLETRGVKDVLKKRLKNYYKKQK [K17V]	-0.152 ± 0.061
VYKEIAITNGCINRMSSEELRAKLSEFKLETRGVKDVLKKRLKNYYKKQK [K17S]	-0.34 ± 0.051
VYKEIAITNGCINRMSGEELRAKLSEFKLETRGVKDVLKKRLKNYYKKQK [K17G]	-0.603 ± 0.094
